Source: patent US6677433B2 (The Regents of the University of California, priority 2001, dated 2004)

Biological target: T1, Fructose Bisphosphatase (Spinacia oleracea, UniProt P22418)
T1 construct: fructose-1,6-bisphosphatase (FBPase) were purified from leaves of corn (Jacquot, J.-P. et al. (1981), Plant Physiol. 68:300-304) and spinach; from tissue; host or cells: spinach leaves
T1 sequence (P22418 58-415): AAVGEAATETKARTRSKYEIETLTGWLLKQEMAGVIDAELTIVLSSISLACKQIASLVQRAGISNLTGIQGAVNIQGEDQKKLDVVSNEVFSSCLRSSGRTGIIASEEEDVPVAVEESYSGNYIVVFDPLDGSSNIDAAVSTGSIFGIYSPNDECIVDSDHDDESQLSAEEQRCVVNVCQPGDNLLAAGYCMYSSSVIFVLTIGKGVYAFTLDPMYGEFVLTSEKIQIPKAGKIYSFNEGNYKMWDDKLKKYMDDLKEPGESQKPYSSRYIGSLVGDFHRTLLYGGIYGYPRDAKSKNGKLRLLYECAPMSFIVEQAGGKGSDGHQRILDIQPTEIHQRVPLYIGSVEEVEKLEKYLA
Assay: Activation of chloroplast fructose bisphosphatase by thioredoxin-reduced proteins
Type: biochemical, spinach
Conditions: standard DTT assay, 1 μg E. coli thioredoxin, 20 μg protein; corrected for thioredoxin alone
Protocol: The NADP-MDH, FBPase, NTR and Thioredoxin h assay methods were according to Florencio, F. J. et al. (1988), Arch. Biochem. Biophys. 266:496-507 with slight modifications as indicated. For enzyme activation assays, the preincubation time was 20 min unless specified otherwise.
The capability to replace a specific thioredoxin in the activation of chloroplast enzymes is one test for the ability of thiol groups of a given protein to undergo reversible redox change. […] A case in point is purothionin which, when reduced by thioredoxin h activates chloroplast FBPase (Wada, K. et al. (1981), FEBS Lett. 124:237-240, and Johnson, T. C. et al. (1987), Plant Physiol. 85:446-451). The FBPase, whose physiological activator is thioredoxin f, is unaffected by thioredoxin h. In this Example, the ability of cystine-rich proteins to activate FBPase as well as NADP-MDH was tested as set forth above. […]
The Wada et al., 1981 protocol was used for assaying NADP-malate dehydrogenase and fructose 1,6 bisphosphatase in the presence of thioredoxin and 2S protein. […] The 2S protein was monitored during purification by mBBr/SDS-polyacrylamide gel electrophoresis following its reduction by dithiothreitol and E. coli thioredoxin (Crawford et al., 1989; Kobrehel et al., 1991).

B1: Soybean Kunitz: Kunitz soybean trypsin inhibitor (protein, UniProt P01070 25-205, looked up)
Trypsin inhibitor A: DFVLDNEGNPLENGGTYYILSDITAFGGIRAAPTGNERCPLTVVQSRNELDKGIGTIISSPYRIRFIAEGHPLSLKFDSFAVIMLCVGIPTEWSVVEDLPEGPAVKIGENKDAMDGWFRLERVSDDEFNNYKLVFCPQQAEDDKCGDIGISIDHDDGTRRLVVSKNKPLVVQFQKLDKESL
For B1, the “ACTIVITY, FBPase” value was 0 nkat/mg.
